Source: publication PMC2425495 (Nucleic Acids Research, 2008)

Tests used:
crystal structure = biological target: the molecule itself; assay: crystal structure
HutP (V51I) = biological target: T1, HutP (V51I) (Bacillus subtilis, UniProt P10943 1-148, V51I); assay: EMSA
T1 sequence: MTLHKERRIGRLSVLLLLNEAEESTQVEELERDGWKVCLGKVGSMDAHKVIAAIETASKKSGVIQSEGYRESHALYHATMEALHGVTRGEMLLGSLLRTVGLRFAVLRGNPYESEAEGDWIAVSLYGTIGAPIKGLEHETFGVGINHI

B1: HutP (Val 51 Ile mutant), anti-termination protein of the hut operon (natural protein, Bacillus subtilis)
chain: TLHKERRIGRLSVLLLLNEAEESTQVEELERDGWKVCLGKVGSMDAHKVIAAIETASKKSGVIQSEGYRESHALYHATMEALHGVTRGEMLLGSLLRTVGLRFAVLRGNPYESEAEGDWIAVSLYGTIGAPIKGLEHETFGVGINHI
With B1 the “stoichiometry N” value (crystal structure) was 6.

UUUAGUUUUUAGUUUUUAGUU (ssRNA) [21-mer RNA]: binds (HutP (V51I)).
